# From PMC9482650, “Quantitative fragmentomics allow affinity mapping of interactomes” (Nature Communications, 2022)
# Target: T1, DFNB31_2, Q9P202
# T1 sequence (Q9P202 274-371, limits assumed, looked up): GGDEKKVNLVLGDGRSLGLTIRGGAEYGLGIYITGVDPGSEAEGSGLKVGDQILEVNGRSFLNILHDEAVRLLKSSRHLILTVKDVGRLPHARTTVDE
# Experiment: holdup assay
# Set-up: key: below the threshold = too weak to quantify, mostly under pKd 3.1 to 4
# Details: plain residues with an end cap or a label only (N-terminal biotin on a linker: ado-ado)
row,Binder,pKd
1,"RDYTQSSSSL [GRM5, P41594]",below the threshold

# Target: DLG2_2, Q15700
# Experiment: holdup assay
# Set-up: key: below the threshold = too weak to quantify, mostly under pKd 3.1 to 4
# Details: plain residues with an end cap or a label only (N-terminal biotin on a linker: ado-ado)
# Sequence of DLG2_2, Q15700 (Q15700 189-283): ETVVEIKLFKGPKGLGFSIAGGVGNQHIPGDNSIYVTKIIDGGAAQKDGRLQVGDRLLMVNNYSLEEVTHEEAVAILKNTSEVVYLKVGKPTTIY
row,Binder,pKd
1,"RDYTQSSSSL [GRM5, P41594]",below the threshold

# Target: T2, DLG3_2, Q92796
# T2 sequence (Q92796 221-321, limits assumed, looked up): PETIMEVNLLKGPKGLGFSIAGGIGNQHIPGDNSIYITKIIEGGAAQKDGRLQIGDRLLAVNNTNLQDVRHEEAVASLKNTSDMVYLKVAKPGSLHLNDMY
# Experiment: holdup assay
# Set-up: key: below the threshold = too weak to quantify, mostly under pKd 3.1 to 4
# Details: plain residues with an end cap or a label only (N-terminal biotin on a linker: ado-ado)
row,Binder,pKd
1,"RDYTQSSSSL [GRM5, P41594]",3.96

# Target: T3, DLG3_3, Q92796
# T3 sequence (Q92796 374-475, limits assumed, looked up): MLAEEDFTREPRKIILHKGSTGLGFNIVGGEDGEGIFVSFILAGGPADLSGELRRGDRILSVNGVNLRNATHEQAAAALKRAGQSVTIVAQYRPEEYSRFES
# Experiment: holdup assay
# Set-up: key: below the threshold = too weak to quantify, mostly under pKd 3.1 to 4
# Details: plain residues with an end cap or a label only (N-terminal biotin on a linker: ado-ado)
row,Binder,pKd
1,"RDYTQSSSSL [GRM5, P41594]",below the threshold

# Target: DLG4_2, P78352
# Experiment: holdup assay
# Set-up: key: below the threshold = too weak to quantify, mostly under pKd 3.1 to 4
# Details: plain residues with an end cap or a label only (N-terminal biotin on a linker: ado-ado)
# Sequence of DLG4_2, P78352 (P78352 155-259): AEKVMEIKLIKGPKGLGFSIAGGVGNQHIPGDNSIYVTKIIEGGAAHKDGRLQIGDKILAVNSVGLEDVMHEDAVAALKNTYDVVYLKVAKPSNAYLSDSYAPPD
row,Binder,pKd
1,"RDYTQSSSSL [GRM5, P41594]",below the threshold

# Target: GORASP2, Q9H8Y8
# Experiment: holdup assay
# Set-up: key: below the threshold = too weak to quantify, mostly under pKd 3.1 to 4
# Details: plain residues with an end cap or a label only (N-terminal biotin on a linker: ado-ado)
row,Binder,pKd
1,"RDYTQSSSSL [GRM5, P41594]",below the threshold

# Target: T4, GRIP1_2, Q9Y3R0
# T4 sequence (Q9Y3R0 145-248, limits assumed, looked up): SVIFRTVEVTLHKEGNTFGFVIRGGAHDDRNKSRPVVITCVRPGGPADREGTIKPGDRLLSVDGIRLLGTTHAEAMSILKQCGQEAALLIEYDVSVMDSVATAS
# Experiment: holdup assay
# Set-up: key: below the threshold = too weak to quantify, mostly under pKd 3.1 to 4
# Details: plain residues with an end cap or a label only (N-terminal biotin on a linker: ado-ado)
row,Binder,pKd
1,"RDYTQSSSSL [GRM5, P41594]",below the threshold

# Target: T5, GRIP1_4, Q9Y3R0
# T5 sequence (Q9Y3R0 467-571, limits assumed, looked up): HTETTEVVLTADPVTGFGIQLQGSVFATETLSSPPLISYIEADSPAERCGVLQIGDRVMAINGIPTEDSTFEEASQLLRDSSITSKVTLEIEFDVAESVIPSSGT
# Experiment: holdup assay
# Set-up: key: below the threshold = too weak to quantify, mostly under pKd 3.1 to 4
# Details: plain residues with an end cap or a label only (N-terminal biotin on a linker: ado-ado)
row,Binder,pKd
1,"RDYTQSSSSL [GRM5, P41594]",below the threshold

# Target: HTRA1, Q92743
# Experiment: holdup assay
# Set-up: key: below the threshold = too weak to quantify, mostly under pKd 3.1 to 4
# Details: plain residues with an end cap or a label only (N-terminal biotin on a linker: ado-ado)
# Sequence of HTRA1, Q92743 (Q92743 360-477): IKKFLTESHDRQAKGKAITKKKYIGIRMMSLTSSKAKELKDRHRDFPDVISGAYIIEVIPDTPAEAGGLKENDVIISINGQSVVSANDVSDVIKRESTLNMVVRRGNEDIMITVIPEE
row,Binder,pKd
1,"RDYTQSSSSL [GRM5, P41594]",below the threshold

# Target: T6, HTRA3, P83110
# T6 sequence (P83110 354-453, limits assumed, looked up): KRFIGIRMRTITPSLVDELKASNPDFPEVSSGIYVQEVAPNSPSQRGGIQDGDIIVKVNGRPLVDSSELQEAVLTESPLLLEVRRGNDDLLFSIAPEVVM
# Experiment: holdup assay
# Set-up: key: below the threshold = too weak to quantify, mostly under pKd 3.1 to 4
# Details: plain residues with an end cap or a label only (N-terminal biotin on a linker: ado-ado)
row,Binder,pKd
1,"RDYTQSSSSL [GRM5, P41594]",below the threshold

# Target: IL16_1, Q14005
# Experiment: holdup assay
# Set-up: key: below the threshold = too weak to quantify, mostly under pKd 3.1 to 4
# Details: plain residues with an end cap or a label only (N-terminal biotin on a linker: ado-ado)
# Sequence of IL16_1, Q14005 (Q14005 210-306): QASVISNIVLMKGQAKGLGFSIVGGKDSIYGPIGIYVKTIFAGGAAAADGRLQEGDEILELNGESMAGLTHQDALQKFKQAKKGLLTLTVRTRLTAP
row,Binder,pKd
1,"RDYTQSSSSL [GRM5, P41594]",below the threshold

# Target: Inadl_10, Q8NI35
# Experiment: holdup assay
# Set-up: key: below the threshold = too weak to quantify, mostly under pKd 3.1 to 4
# Details: plain residues with an end cap or a label only (N-terminal biotin on a linker: ado-ado)
# Sequence of Inadl_10, Q8NI35 (Q8NI35 1673-1763): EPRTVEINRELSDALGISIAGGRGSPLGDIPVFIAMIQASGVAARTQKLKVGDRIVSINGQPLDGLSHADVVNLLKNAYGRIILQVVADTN
row,Binder,pKd
1,"RDYTQSSSSL [GRM5, P41594]",below the threshold

# Target: Inadl_5, Q8NI35
# Experiment: holdup assay
# Set-up: key: below the threshold = too weak to quantify, mostly under pKd 3.1 to 4
# Details: plain residues with an end cap or a label only (N-terminal biotin on a linker: ado-ado)
# Sequence of Inadl_5, Q8NI35 (Q8NI35 673-780): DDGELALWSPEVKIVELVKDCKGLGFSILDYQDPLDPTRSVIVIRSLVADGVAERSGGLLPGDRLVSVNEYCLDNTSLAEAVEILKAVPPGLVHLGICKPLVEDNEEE
row,Binder,pKd
1,"RDYTQSSSSL [GRM5, P41594]",below the threshold

# Target: Inadl_9, Q8NI35
# Experiment: holdup assay
# Set-up: key: below the threshold = too weak to quantify, mostly under pKd 3.1 to 4
# Details: plain residues with an end cap or a label only (N-terminal biotin on a linker: ado-ado)
# Sequence of Inadl_9, Q8NI35 (Q8NI35 1530-1615): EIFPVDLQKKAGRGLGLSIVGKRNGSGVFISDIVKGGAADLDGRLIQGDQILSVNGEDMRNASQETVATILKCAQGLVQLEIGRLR
row,Binder,pKd
1,"RDYTQSSSSL [GRM5, P41594]",below the threshold

# Target: LAP2, Q96RT1
# Experiment: holdup assay
# Set-up: key: below the threshold = too weak to quantify, mostly under pKd 3.1 to 4
# Details: plain residues with an end cap or a label only (N-terminal biotin on a linker: ado-ado)
# Sequence of LAP2, Q96RT1 (Q96RT1 other isoform, or with tags, fused parts or gaps): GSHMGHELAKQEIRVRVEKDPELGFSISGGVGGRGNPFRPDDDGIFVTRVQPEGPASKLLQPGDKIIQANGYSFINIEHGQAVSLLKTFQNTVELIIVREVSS
row,Binder,pKd
1,"RDYTQSSSSL [GRM5, P41594]",below the threshold

# Target: T7, LIN7B, Q9HAP6
# T7 sequence (Q9HAP6 88-185, limits assumed, looked up): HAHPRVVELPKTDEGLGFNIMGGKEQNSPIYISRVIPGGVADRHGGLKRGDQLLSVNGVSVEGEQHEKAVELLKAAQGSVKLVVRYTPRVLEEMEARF
# Experiment: holdup assay
# Set-up: key: below the threshold = too weak to quantify, mostly under pKd 3.1 to 4
# Details: plain residues with an end cap or a label only (N-terminal biotin on a linker: ado-ado)
row,Binder,pKd
1,"RDYTQSSSSL [GRM5, P41594]",3.52

# Target: T8, MPDZ_10, O75970
# T8 sequence (O75970 1624-1722, limits assumed, looked up): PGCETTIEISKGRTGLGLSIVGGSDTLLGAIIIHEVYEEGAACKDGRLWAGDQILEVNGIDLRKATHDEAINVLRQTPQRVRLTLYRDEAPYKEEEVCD
# Experiment: holdup assay
# Set-up: key: below the threshold = too weak to quantify, mostly under pKd 3.1 to 4
# Details: plain residues with an end cap or a label only (N-terminal biotin on a linker: ado-ado)
row,Binder,pKd
1,"RDYTQSSSSL [GRM5, P41594]",below the threshold

# Target: NHERF4_4, Q86UT5
# Experiment: holdup assay
# Set-up: key: below the threshold = too weak to quantify, mostly under pKd 3.1 to 4
# Details: plain residues with an end cap or a label only (N-terminal biotin on a linker: ado-ado)
# Sequence of NHERF4_4, Q86UT5 (Q86UT5 464-550): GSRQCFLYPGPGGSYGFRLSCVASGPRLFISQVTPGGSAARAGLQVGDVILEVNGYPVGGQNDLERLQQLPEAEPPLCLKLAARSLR
row,Binder,pKd
1,"RDYTQSSSSL [GRM5, P41594]",below the threshold

# Target: NOS1, P29475
# Experiment: holdup assay
# Set-up: key: below the threshold = too weak to quantify, mostly under pKd 3.1 to 4
# Details: plain residues with an end cap or a label only (N-terminal biotin on a linker: ado-ado)
# Sequence of NOS1, P29475 (P29475 9-101): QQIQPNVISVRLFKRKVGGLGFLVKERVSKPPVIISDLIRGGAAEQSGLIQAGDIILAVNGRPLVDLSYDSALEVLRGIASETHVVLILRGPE
row,Binder,pKd
1,"RDYTQSSSSL [GRM5, P41594]",below the threshold

# Target: T9, PARD3B_1, Q8TEW8
# T9 sequence (Q8TEW8 196-299, limits assumed, looked up): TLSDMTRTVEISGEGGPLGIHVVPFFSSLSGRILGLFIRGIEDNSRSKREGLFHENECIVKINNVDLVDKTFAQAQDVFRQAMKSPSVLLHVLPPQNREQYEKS
# Experiment: holdup assay
# Set-up: key: below the threshold = too weak to quantify, mostly under pKd 3.1 to 4
# Details: plain residues with an end cap or a label only (N-terminal biotin on a linker: ado-ado)
row,Binder,pKd
1,"RDYTQSSSSL [GRM5, P41594]",3.82

# Target: T10, PTPN13_1, Q12923
# T10 sequence (Q12923 1088-1188, limits assumed, looked up): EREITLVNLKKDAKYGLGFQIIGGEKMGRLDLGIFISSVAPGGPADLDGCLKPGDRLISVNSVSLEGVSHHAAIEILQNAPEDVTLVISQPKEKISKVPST
# Experiment: holdup assay
# Set-up: key: below the threshold = too weak to quantify, mostly under pKd 3.1 to 4
# Details: plain residues with an end cap or a label only (N-terminal biotin on a linker: ado-ado)
row,Binder,pKd
1,"RDYTQSSSSL [GRM5, P41594]",below the threshold

# Target: T11, RHPN1, Q8TCX5
# T11 sequence (Q8TCX5 508-602, limits assumed, looked up): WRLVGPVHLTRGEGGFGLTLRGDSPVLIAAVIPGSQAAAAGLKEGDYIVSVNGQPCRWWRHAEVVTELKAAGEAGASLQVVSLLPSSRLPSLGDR
# Experiment: holdup assay
# Set-up: key: below the threshold = too weak to quantify, mostly under pKd 3.1 to 4
# Details: plain residues with an end cap or a label only (N-terminal biotin on a linker: ado-ado)
row,Binder,pKd
1,"RDYTQSSSSL [GRM5, P41594]",3.51

# Target: T12, SYNJ2BP, P57105
# T12 sequence (P57105 8-110, limits assumed, looked up): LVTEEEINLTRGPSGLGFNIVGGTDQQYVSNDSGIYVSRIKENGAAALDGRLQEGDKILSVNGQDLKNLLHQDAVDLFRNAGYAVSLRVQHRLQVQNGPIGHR
# Experiment: holdup assay
# Set-up: key: below the threshold = too weak to quantify, mostly under pKd 3.1 to 4
# Details: plain residues with an end cap or a label only (N-terminal biotin on a linker: ado-ado)
row,Binder,pKd
1,"RDYTQSSSSL [GRM5, P41594]",3.82

# Target: TJP1_3, Q07157
# Experiment: holdup assay
# Set-up: key: below the threshold = too weak to quantify, mostly under pKd 3.1 to 4
# Details: plain residues with an end cap or a label only (N-terminal biotin on a linker: ado-ado)
# Sequence of TJP1_3, Q07157 (Q07157 416-512): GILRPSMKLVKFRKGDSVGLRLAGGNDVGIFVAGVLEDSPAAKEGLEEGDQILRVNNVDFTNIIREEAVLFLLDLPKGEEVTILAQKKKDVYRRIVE
row,Binder,pKd
1,"RDYTQSSSSL [GRM5, P41594]",below the threshold

# Target: TJP2_1, Q9UDY2
# Experiment: holdup assay
# Set-up: key: below the threshold = too weak to quantify, mostly under pKd 3.1 to 4
# Details: plain residues with an end cap or a label only (N-terminal biotin on a linker: ado-ado)
# Sequence of TJP2_1, Q9UDY2 (Q9UDY2 24-128): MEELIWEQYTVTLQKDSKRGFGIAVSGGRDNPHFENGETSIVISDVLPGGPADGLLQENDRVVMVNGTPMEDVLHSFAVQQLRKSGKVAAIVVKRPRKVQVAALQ
row,Binder,pKd
1,"RDYTQSSSSL [GRM5, P41594]",below the threshold
